# Substitutions are numbered along the chain they refer to. Read-outs that look alike come from different tables or passages of the source.
# T1: His-tagged human BCMA (Acro Biosystems, Cat. #BCA-H522y) (human, UniProt Q02223 1-54)
# T1 construct: also called huBCMA; P1; not shown: His tag
# T1 sequence: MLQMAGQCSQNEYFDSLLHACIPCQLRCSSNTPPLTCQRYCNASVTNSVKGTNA
# T2: human BCMA expressed on cells (human, UniProt Q02223 1-184)
# T2 construct: the cell line is named under assay; also called wildtype human BCMA
# T2 sequence: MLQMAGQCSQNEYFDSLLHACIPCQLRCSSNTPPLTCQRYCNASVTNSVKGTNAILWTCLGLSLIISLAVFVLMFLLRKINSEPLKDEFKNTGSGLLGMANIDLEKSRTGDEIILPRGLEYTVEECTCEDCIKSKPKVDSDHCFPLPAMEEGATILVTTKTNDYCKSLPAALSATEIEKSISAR
# T3: recombinant his-tagged human TACI (Sinobiological cat #11937-H08H) (human, UniProt O14836 1-165)
# T3 construct: Bought protein; also called Human TACI-His; huTACI; not shown: His tag
# T3 sequence: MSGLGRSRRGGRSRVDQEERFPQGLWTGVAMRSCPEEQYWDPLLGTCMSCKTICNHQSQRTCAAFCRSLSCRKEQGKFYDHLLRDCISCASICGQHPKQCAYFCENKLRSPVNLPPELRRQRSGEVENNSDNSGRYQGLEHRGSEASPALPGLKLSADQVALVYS
# T4: BCMA:APRIL 1:1 (human, UniProt Q02223;O75888)
# T4 construct: His-tagged recombinant;recombinant; also called human BCMA after incubation with human APRIL
# T4 sequence (receptor, looked up): T1 sequence
# T4 sequence (ligand, looked up): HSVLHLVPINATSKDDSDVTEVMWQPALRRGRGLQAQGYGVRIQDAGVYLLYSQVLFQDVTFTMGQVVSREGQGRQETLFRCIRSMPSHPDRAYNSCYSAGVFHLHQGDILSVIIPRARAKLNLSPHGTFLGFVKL
# T5: His-tagged mouse BCMA (Acro Biosystems, BCA-M52H3) (mouse, UniProt O88472 1-49)
# T5 construct: Bought protein; not shown: His tag
# T5 chain: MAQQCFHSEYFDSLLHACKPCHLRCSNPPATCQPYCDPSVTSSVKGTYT
# B1: 552-LN2-E6 hIgG1 (antibody, V domains shown)
# VH: QIQLVQSGPELKKPGETVKISCMASGYTFTDYSVRWVKQAPGKGLEWMGWINTETGEPTYADDFKGRFAFSLETSASTAYLQINNLKNEDTATYFCAISYYYALDYWGHGTSVTVSS
# VL: DIVLTQSPASLTVSLGQRATISCRASKSVSTSVYSFLHWYQQKPGQPPKLLIYLASNLESGVPARFSGSGSGTDFTLNIHPVEEEDAATYYCQHSRELPRTFGGGTKLEIKR
# notes: Human-mouse chimeric antibody, human IgG1 format; also called [8]
# B2: 552-LN1-F4 hIgG1 (antibody, V domains shown)
# VH: B1 VH with D62H, N88D, A92S
# VL: B1 VL with V33G, S35N, V62A
# notes: Human-mouse chimeric antibody, human IgG1 format; also called [7]
# B3: 552-LN1-E9 hIgG1 (antibody, V domains shown)
# VH: B1 VH with M23K, V34I, R35Y, E46K, T78S, N85T, A97S, L104M, H109Q
# VL: B1 VL with T12A, V33G, L54F
# notes: Human-mouse chimeric antibody, human IgG1 format; also called [6]
# B4: 539-SP2-H3 hIgG1 (antibody, V domains shown)
# VH: EVQLQQSGPELVKPGASVKMSCKASGYTFTSYVIHWVKQKPGQGLEWIGYVLPYNDVIKYNEKFKGKATLTSDKSSSTAYMDLSSLTSEDSAVYYCARWGDFDEGIWFPYWGQGTLVTVSA
# VL: DVLMTQTPLSLPVSLGDHASVSCRSSQSIVHTDGNTYLEWYLQKPGQSPKLLIYKVSNRFSGVPDRFSGSGSGTDFTLKISRVEAEDLGVYYCFQGSHVPWTFGGGTKLEIKR
# notes: Human-mouse chimeric antibody, human IgG1 format
# How the values were obtained:
# [1] = biological target: T1, His-tagged human BCMA (Acro Biosystems, …); assay: BLI, His-tagged human BCMA on HIS1K tip, no APRIL; R2 0.9928
# [2] = biological target: T1, His-tagged human BCMA (Acro Biosystems, …); assay: BLI, His-tagged human BCMA on HIS1K tip
# [3] = biological target: T6, His-tagged cynomolgous macaque BCMA (Acro Biosystems, BCA-C52H7) (cynomolgus macaque, UniProt Q02223 1-54 (human entry)); assay: ELISA, coated His-tagged cynomolgus BCMA
# T6 construct: Bought protein; also called cyno BCMA; CyBCMA; not shown: His tag
# [4] = biological target: T6, His-tagged cynomolgous macaque BCMA …; assay: BLI, His-tagged cynomolgus BCMA on HIS1K tip
# [5] = biological target: T7, cynomolgous macaque BCMA expressed on CHOK1 cells; assay: flow cytometry, CHOK1 cells transiently expressing cynomolgus BCMA
# T7 construct: also called cyno BCMA on cells
# [6] = biological target: T2, human BCMA expressed on cells; assay: flow cytometry, H929 cells (BCMA-expressing)
# [7] = biological target: T3, recombinant his-tagged human TACI …; assay: ELISA, coated His-tagged human TACI
# [8] = biological target: T6, His-tagged cynomolgous macaque BCMA …; assay: BLI, His-tagged cynomolgus BCMA on HIS1K tip; R2 0.9552
# [9] = biological target: T1, His-tagged human BCMA (Acro Biosystems, …); assay: BLI, His-tagged human BCMA on HIS1K tip; R2 0.9928
# [10] = biological target: T1, His-tagged human BCMA (Acro Biosystems, …); assay: BLI, His-tagged human BCMA on HIS1K tip; R2 0.9939
# [11] = biological target: T4, BCMA:APRIL 1:1; assay: BLI, His-tagged human BCMA on tip, then human APRIL 3000 nM, then IgG; R2 0.9805
# [12] = biological target: T6, His-tagged cynomolgous macaque BCMA …; assay: BLI, His-tagged cynomolgus BCMA on HIS1K tip; R2 0.9296
# [13] = biological target: T1, His-tagged human BCMA (Acro Biosystems, …); assay: BLI, His-tagged human BCMA on HIS1K tip, no APRIL; R2 0.9939
# [14] = biological target: T1, His-tagged human BCMA (Acro Biosystems, …); assay: BLI, His-tagged human BCMA on HIS1K tip; R2 0.9933
# [15] = biological target: T1, His-tagged human BCMA (Acro Biosystems, …); assay: ELISA, coated His-tagged human BCMA
# [16] = biological target: T2, human BCMA expressed on cells; assay: flow cytometry, HEK 293 cells expressing human BCMA
# [17] = biological target: T1, His-tagged human BCMA (Acro Biosystems, …); assay: BLI, His-tagged human BCMA on HIS1K tip, no APRIL; R2 0.9933
# [18] = biological target: T6, His-tagged cynomolgous macaque BCMA …; assay: BLI, His-tagged cynomolgus BCMA on HIS1K tip; R2 0.9421
# [19] = biological target: T2, human BCMA expressed on cells; assay: flow cytometry, HEK293 cells stably expressing human BCMA
# [20] = biological target: T1, His-tagged human BCMA (Acro Biosystems, …); assay: ELISA, coated His-tagged human BCMA; remark: listed apart in the source
# [21] = biological target: T3, recombinant his-tagged human TACI …; assay: ELISA, coated His-tagged human TACI; remark: listed apart in the source
# [22] = biological target: T2, human BCMA expressed on cells; assay: flow cytometry, HEK293 cells stably expressing human BCMA; remark: listed apart in the source
# [23] = biological target: T1, His-tagged human BCMA (Acro Biosystems, …); assay: BLI, His-tagged human BCMA on HIS1K tip; R2 0.9908
# [24] = biological target: T7, cynomolgous macaque BCMA expressed on …; assay: flow cytometry, CHOK1 cells transiently expressing cynomolgus BCMA; remark: listed apart in the source
# [25] = biological target: T5, His-tagged mouse BCMA (Acro Biosystems, …); assay: BLI, His-tagged mouse BCMA on HIS1K tip; R2 0.2661, below the filing's cut-off of 0.9
# [26] = biological target: T5, His-tagged mouse BCMA (Acro Biosystems, …); assay: BLI, His-tagged mouse BCMA on HIS1K tip
# [27] = biological target: T1, His-tagged human BCMA (Acro Biosystems, …); assay: BLI, His-tagged human BCMA on HIS1K tip, no APRIL; R2 0.9908
binder,measurement,setting,value
B1,Kd,[1],< 0.001 nM
same,Human BCMA response,[2],2.37
same,EC50 (read off the curve),[3],~0.08 mg/L
same,Cyno BCMA response,[4],1.55
same,binding result,[5],binds
same,EC50 (read off the curve),[6],~0.3 mg/L
same,binding result,[7],no binding (tested: 10 ug/ml)
same,Kd,[8],38.5 nM
same,Kd,[9],< 0.001 nM
B2,Human BCMA response,[2],2.33
same,Cyno BCMA response,[4],0.918
same,Kd,[10],< 0.001 nM
same,binding result,[5],binds
same,EC50 (read off the curve),[6],~0.2 mg/L
same,Kd,[11],9.61 nM
same,Kd,[12],71 nM
same,binding result,[7],no binding (tested: 10 ug/ml)
same,Kd,[13],< 0.001 nM
B3,Kd,[14],< 0.001 nM
same,EC50,[15],0.081 nM
same,Human BCMA response,[2],2.76
same,EC50,[16],0.65 nM
same,EC50 (read off the curve),[3],~0.08 mg/L
same,Cyno BCMA response,[4],1.8
same,binding result,[5],binds
same,EC50 (read off the curve),[6],~0.05 mg/L
same,Kd,[17],< 0.001 nM
same,binding result,[7],no binding (tested: 10 ug/ml)
same,Kd,[18],32.6 nM
same,EC50 (read off the curve),[19],~0.1 mg/L
B4,EC50 (read off the curve),[20],~0.01 mg/L
same,EC50 (read off the curve),[21],~0.7 mg/L
same,EC50 (read off the curve),[22],~0.06 mg/L
same,Human BCMA response,[2],2.36
same,Kd,[23],< 0.001 nM
same,binding result,[24],binds
same,Kd,[25],7.25 nM
same,Mouse BCMA response,[26],0.29
same,Kd,[27],< 0.001 nM
